The results in this text go back to paper PMC5767221.

This test deals with mGlu5-NanoLuc (UniProt P31424). Description: FRET or BRET; intermolecular BRET imaging in live hippocampal neurons expressing mGlu5-NanoLuc (donor) and Venus-Homer (acceptor); recorded for 30 min in soma and dendritic spines; control KCl 3 mM, and before and during depolarization with KCl 55 mM.
Sequence of UniProt P31424 (P31424 21-1203): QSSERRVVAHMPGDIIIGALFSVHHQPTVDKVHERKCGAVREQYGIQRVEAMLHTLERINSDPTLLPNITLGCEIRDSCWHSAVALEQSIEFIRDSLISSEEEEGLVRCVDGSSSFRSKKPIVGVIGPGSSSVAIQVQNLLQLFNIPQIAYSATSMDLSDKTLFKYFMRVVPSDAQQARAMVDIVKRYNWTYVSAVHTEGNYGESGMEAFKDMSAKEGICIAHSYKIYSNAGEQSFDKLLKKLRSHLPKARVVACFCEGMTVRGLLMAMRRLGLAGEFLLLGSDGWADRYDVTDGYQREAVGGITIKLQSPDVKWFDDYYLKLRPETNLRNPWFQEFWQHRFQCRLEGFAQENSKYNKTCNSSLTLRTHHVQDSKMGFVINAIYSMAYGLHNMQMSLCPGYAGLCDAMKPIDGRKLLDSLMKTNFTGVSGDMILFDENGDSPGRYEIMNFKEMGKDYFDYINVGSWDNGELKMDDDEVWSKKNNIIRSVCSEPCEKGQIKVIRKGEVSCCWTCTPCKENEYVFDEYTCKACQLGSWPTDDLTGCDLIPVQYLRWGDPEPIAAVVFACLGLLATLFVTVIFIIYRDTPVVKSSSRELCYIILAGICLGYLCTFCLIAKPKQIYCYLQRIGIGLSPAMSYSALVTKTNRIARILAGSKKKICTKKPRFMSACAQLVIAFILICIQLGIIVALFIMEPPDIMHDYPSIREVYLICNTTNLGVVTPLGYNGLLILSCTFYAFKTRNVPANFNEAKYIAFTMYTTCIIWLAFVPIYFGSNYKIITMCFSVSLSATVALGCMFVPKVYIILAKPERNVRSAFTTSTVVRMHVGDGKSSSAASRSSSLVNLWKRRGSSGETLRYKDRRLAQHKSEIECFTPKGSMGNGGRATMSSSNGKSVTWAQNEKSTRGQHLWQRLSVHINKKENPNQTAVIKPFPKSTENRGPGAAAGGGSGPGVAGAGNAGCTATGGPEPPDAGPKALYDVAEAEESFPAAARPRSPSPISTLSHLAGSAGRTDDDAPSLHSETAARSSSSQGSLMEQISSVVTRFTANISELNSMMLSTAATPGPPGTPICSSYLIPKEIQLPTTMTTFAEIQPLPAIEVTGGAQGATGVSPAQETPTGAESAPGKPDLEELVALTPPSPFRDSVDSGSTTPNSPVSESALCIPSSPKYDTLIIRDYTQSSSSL

With “Venus-Homer (from UniProt Q9Z214 1-366) (natural protein)”, the drop of BRET signal with KCl 55 mM against before depolarization (soma) came to 15% and the drop of BRET signal with KCl 55 mM against before depolarization (spines) was 16%.
